The chains are these.
B1: AX9 IgG2 (antibody)
heavy: EVQLLESGGGLVQPGGSLRLSCKASGYTFSSYWMHWVRQAPGKGLEWIGRIDPYNGGTKYNEKFKGKATISRDNSKNTLYLQMNSLRAEDTAVYYCARYGYYLGSYAMDYWGQGTLVTVSSASTKGPSVFPLAPCSRSTSESTAALGCLVKDYFPEPVTVSWNSGALTSGVHTFPAVLQSSGLYSLSSVVTVPSSNFGTQTYTCNVDHKPSNTKVDKTVERKCCVECPPCPAPPVAGPSVFLFPPKPKDTLMISRTPEVTCVVVDVSHEDPEVQFNWYVDGVEVHNAKTKPREEQFNSTFRVVSVLTVVHQDWLNGKEYKCKVSNKGLPAPIEKTISKTKGQPREPQVYTLPPSREEMTKNQVSLTCLVKGFYPSDIAVEWESNGQPENNYKTTPPMLDSDGSFFLYSKLTVDKSRWQQGNVFSCSVMHEALHNHYTQKSLSLSPGK
light: DIQMTQSPSSLSASVGDRVTITCRASQDVSKYLAWYQQKPGKAPKLLIYAASSLQSGVPSRFSGSGSGTDFTLTISSLQPEDFATYYCQVYDSSPNAYVFGGGTKVEIKRTVAAPSVFIFPPSDEQLKSGTASVVCLLNNFYPREAKVQWKVDNALQSGNSQESVTEQDSKDSTYSLSSTLTLSKADYEKHKVYACEVTHQGLSSPVTKSFNRGEC
B2: AX1 IgG2 (antibody)
heavy: EVQLLESGGGLVQPGGSLRLSCKASGFTFTSYYMHWVRQAPGKGLEWIGRINPDSGSTKYNEKFKGRATISRDNSKNTLYLQMNSLRAEDTAVYYCARGGRLSWDFDVWGQGTLVTVSSASTKGPSVFPLAPCSRSTSESTAALGCLVKDYFPEPVTVSWNSGALTSGVHTFPAVLQSSGLYSLSSVVTVPSSNFGTQTYTCNVDHKPSNTKVDKTVERKCCVECPPCPAPPVAGPSVFLFPPKPKDTLMISRTPEVTCVVVDVSHEDPEVQFNWYVDGVEVHNAKTKPREEQFNSTFRVVSVLTVVHQDWLNGKEYKCKVSNKGLPAPIEKTISKTKGQPREPQVYTLPPSREEMTKNQVSLTCLVKGFYPSDIAVEWESNGQPENNYKTTPPMLDSDGSFFLYSKLTVDKSRWQQGNVFSCSVMHEALHNHYTQKSLSLSPGK
light: B1 light with V29I, K31R, Q89A, V90A, S93Y, P95L, N96G, A97G, G102D
notes: Made in HEK293 cells or in glycoengineered Pichia
B3: AX191 IgG2 (antibody)
heavy: B1 heavy
light: B1 light with V29I, V90A, S93Y, P95S, N96S
notes: IgG2
B4: AX189 IgG2 (antibody)
heavy: B1 heavy
light: B1 light with K31R, A34T, V90A, S93Y, P95L, N96S, A97G
notes: the leaderless entry is used
B5: AX1DG IgG2 (antibody, V domains shown)
VH: EVQLLESGGGLVQPGGSLRLSCKASGFTFTSYYMHWVRQAPGKGLEWIGRINPDSGSTKYNEKFKGRATISRDNSKNTLYLQMNSLRAEDTAVYYCARGGRLSWDFDVWGQGTLVTVSS
VL: DIQMTQSPSSLSASVGDRVTITCRASQDISRYLAWYQQKPGKAPKLLIYAASSLQSGVPSRFSGSGSGTDFTLTISSLQPEDFATYYCAAYDYSLGGYVFGGGTKVEIK
notes: IgG2; also called AXIDG
B6: AX9 IgG1 (antibody, V domains shown)
VH: EVQLLESGGGLVQPGGSLRLSCKASGYTFSSYWMHWVRQAPGKGLEWIGRIDPYNGGTKYNEKFKGKATISRDNSKNTLYLQMNSLRAEDTAVYYCARYGYYLGSYAMDYWGQGTLVTVSS
VL: B5 VL with I29V, R31K, A89Q, A90V, Y93S, L95P, G96N, G97A
B7: AX132 IgG2 (antibody, V domains shown)
VH: EVQLLESGGGLVQPGGSLRLSCKASGYTFSSYGMYWVRQAPGKGLEWIGWIDPGSGGTKYNEKFKGKATISRDNSKNTLYLQMNSLRAEDTAVYYCARERYGYYFDYWGQGTLVTVSS
VL: EIVLTQSPATLSLSPGERATITCRASQYVGSYLNWYQQKPGQAPRLLIYDASNRATGIPARFSGSGSGTDFTLTISSLEPEDFAVYYCQVWDSSPPVVFGGGTKVEIK

Numbering of substitutions follows the chain as printed.

Consider seven molecules from patent publication US20120231005A1 (Merck Sharp & Dohme, published 2012).

The term Kd denotes a measure of binding affinity in units of concentration. A low value points to higher affinity. As usually defined, the IC50 is the midpoint of a concentration-inhibition curve.

T4 sequence (P55899 24-297 limits assumed, form in doubt, chain 1 of 2): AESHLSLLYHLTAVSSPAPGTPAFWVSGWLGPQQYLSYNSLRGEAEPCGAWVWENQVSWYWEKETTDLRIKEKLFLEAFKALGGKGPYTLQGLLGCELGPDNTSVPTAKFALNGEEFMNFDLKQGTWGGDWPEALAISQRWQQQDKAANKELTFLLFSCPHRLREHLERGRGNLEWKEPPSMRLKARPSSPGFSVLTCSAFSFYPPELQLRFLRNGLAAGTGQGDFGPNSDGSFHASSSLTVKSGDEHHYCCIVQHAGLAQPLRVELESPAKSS
T4 sequence (P61769 21-119 limits assumed, form in doubt, chain 2 of 2): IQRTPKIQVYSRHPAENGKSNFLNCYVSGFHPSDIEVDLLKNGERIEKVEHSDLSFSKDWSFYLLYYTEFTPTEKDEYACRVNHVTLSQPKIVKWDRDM
T3 sequence (P59996 31-691 limits assumed): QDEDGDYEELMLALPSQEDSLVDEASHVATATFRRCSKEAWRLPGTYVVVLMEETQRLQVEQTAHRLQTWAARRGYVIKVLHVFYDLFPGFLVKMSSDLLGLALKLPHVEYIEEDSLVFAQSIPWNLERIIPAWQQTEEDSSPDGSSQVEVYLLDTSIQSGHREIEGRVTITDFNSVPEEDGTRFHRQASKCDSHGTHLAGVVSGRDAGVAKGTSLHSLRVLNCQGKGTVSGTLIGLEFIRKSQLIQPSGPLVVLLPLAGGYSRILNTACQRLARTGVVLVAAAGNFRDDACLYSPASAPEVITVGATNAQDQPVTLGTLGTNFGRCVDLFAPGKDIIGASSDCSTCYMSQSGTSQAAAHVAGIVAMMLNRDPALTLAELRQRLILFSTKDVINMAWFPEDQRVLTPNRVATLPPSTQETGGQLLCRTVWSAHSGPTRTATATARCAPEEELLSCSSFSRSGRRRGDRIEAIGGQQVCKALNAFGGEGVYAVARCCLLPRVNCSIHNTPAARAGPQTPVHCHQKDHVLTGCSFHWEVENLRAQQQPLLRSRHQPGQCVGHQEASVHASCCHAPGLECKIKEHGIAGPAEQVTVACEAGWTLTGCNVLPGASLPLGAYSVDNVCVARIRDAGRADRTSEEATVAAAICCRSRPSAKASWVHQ
T2 sequence (Q80W65 35-694 limits assumed): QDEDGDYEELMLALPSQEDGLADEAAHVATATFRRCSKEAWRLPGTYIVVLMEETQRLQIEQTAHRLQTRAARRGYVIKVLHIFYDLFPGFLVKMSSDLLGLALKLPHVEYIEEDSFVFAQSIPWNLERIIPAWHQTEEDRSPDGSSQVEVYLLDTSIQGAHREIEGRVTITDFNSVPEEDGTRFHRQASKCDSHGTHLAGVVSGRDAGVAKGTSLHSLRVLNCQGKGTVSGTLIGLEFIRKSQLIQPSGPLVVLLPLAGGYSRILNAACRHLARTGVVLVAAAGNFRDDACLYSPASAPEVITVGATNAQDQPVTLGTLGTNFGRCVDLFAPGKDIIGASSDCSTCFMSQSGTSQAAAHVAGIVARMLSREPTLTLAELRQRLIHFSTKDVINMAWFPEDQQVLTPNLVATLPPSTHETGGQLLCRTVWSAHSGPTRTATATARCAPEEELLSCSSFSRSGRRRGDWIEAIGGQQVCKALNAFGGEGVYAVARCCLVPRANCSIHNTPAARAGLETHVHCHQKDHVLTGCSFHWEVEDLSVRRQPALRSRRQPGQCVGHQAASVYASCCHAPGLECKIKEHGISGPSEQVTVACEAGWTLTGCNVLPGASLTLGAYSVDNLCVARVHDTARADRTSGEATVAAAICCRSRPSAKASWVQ

For one experiment, the target named is rhesus PCSK9 (rhesus). In words: cell-based or functional assay.
In the case of B1, the IgG IC50 (nM), inhibition of PCSK9 on LDL uptake (Exopolar assay) turned out to be 28.6 nM.
For the molecule B2, the IgG IC50 (nM), inhibition of PCSK9 on LDL uptake (Exopolar assay) was determined as 11.2 nM.
Still for that read-out and setting: the result for B3 reads 6.6 nM; that for B4, 9 nM.

The next experiment concerns the target rhesus PCSK9 (rhesus). Nature of the experiment: affinity table, IgG2 (Biacore). For orientation: Surface plasmon resonance follows binding to a sensor surface in real time, without labels.
B1 yielded a Kd of 8.82 nM.
Same read-out and setting: the result for B2 reads 8.61 nM; that for B4, 1.24 nM; that for B5, 8.1 nM.

Another experiment deals with T1, human PCSK9 (human, UniProt Q8NBP7 31-692, limits assumed). Nature of the experiment: cell-based or functional assay.
T1 sequence (Q8NBP7 31-692 limits assumed): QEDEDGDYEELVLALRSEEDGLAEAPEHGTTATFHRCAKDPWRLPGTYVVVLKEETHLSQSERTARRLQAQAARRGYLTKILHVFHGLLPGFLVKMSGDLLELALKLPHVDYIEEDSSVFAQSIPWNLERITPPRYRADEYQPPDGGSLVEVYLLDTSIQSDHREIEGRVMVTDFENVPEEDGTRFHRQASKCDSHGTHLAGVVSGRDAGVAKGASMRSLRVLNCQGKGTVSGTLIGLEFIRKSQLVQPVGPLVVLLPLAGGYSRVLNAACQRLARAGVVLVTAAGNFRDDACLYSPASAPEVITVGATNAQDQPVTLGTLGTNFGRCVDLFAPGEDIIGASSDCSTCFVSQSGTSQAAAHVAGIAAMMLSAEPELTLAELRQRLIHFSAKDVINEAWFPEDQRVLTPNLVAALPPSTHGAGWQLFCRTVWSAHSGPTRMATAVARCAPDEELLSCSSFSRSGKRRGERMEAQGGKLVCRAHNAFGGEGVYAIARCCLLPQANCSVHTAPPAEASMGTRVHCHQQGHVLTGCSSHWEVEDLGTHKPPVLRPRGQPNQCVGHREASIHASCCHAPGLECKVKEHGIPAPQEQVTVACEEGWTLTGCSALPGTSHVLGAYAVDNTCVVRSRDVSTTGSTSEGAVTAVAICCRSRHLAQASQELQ
In the case of B1, the “IgG IC50 (nM), inhibition of PCSK9 on LDL uptake (Exopolar assay)” value (“IgG IC50 (nM), inhibition of PCSK9” for short) worked out at 25.5 nM.
Still for that read-out and setting: the result for B2 reads 7 nM; that for B3, 8.7 nM.
On the same count and under the same terms, for B4 the value was 9.4 nM.
Consider B5, for which the “IgG IC50 (nM), inhibition of PCSK9” value turned out to be 7.4 nM.
Still for that read-out and setting: the result for B6 reads 10.7 nM.

The next experiment concerns the target rhesus PCSK9 (rhesus, UniProt A8T644 31-692 (Pan troglodytes entry), limits assumed). Nature of the experiment: cell-based or functional assay.
Turning to B6, the “IgG IC50 (nM), inhibition of PCSK9” value was determined as 30.3 nM.

A further experiment concerns the target T1, human PCSK9. Nature of the experiment: affinity table, IgG2 (Biacore). On the procedure:
(§1) The affinities of those IgG molecules were also measured by Biacore assay. Briefly, anti-human IgG monoclonal antibody form Human Antibody Capture Kit provided by Biacore was immobilized on CM5 chips at a level of 8000 to 10000 RU. […] After each round injection, the sensor chip surface was regenerated by 30 second injection of 3M Magnesium Chloride.
In turn, B2 came in with a Kd of 5.75 nM.
B5 registered a Kd of 4.61 nM.

Another experiment addresses T1, human PCSK9. Nature of the experiment: affinity table, IgG2 (Biacore). The source holds these as a separate data set. On the procedure:
as §1
B7 displayed a Kd of 6.16 nM.
Still for that read-out and setting: the result for B1 reads 20.6 nM; that for B2, 5.75 nM; that for B4, 1.84 nM.
The same measure, in the same setting: the result for B5 reads 4.61 nM.

A further experiment concerns the target T2, mouse PCSK9 (mouse, UniProt Q80W65 35-694, limits assumed).
T2 construct: also called Mouse PCSK9 9
In words: affinity table, IgG2 (Biacore). On the procedure: as §1
For the molecule B7, binding was put at a Kd of 2.76 nM.
Consider B1, for which the binding result is on record as “no binding”.
On the same count and under the same terms, the result for B2 reads “no binding”; that for B5, “no binding”.

Another experiment addresses T3, rat PCSK9 (rat, UniProt P59996 31-691, limits assumed).
T3 construct: also called rPCSK9
Nature of the experiment: affinity table, IgG2 (Biacore). On the procedure:
as §1
In the case of B7, the Kd was determined as 100 nM.
Take B1: the binding result is given as “no binding”.
For B2, the binding result is listed as “no binding”.
With B5, the binding result is given as “no binding”.

A further experiment deals with rhesus PCSK9 (rhesus). In words: SPR (Biacore); IgG captured on anti-human IgG, PCSK9 injected.
Take B1: the Kd came out at 8.82 nM.
The same measure, in the same setting: for B2 the value was 4.2 nM; for B3, 0.625 nM; for B4, 1.24 nM.
Same read-out and setting: the result for B5 reads 3.6 nM.

The target in a further experiment is T1, human PCSK9. Described as above. On the procedure: as §1
B1: binding was characterised by a dissociation constant (Kd) of 20.6 nM.
Still for that read-out and setting: for B2 the value was 5.75 nM; for B3, 0.846 nM.
Same read-out and setting: for B4 the value was 1.84 nM; for B5, 4.61 nM.

The next experiment has as its target T1, human PCSK9. Nature of the experiment: TR-FRET; antibody titrated against 10 nM AF647-PCSK9 and about 4 nM Eu-LDLR ectodomain. On the procedure: After at least 90 minutes of equilibration, samples were read in a Rubystar reader (BMG Corp.) using 20 flashes per well, a 50 μsec integration delay, and a 200 μsec total integration time.
In turn, B1 registered a concentration for half-maximal inhibition (IC50) of 4.1 nM.
The molecule B2 registered a 50% inhibitory concentration (IC50) of 1 nM.
On the same count and under the same terms, the result for B3 reads 3 nM; that for B4, 6.4 nM.

Another experiment concerns the target T4, human FcRn (human, UniProt P55899 24-297; P61769 21-119, limits assumed).
T4 construct: Beta-2-microglobulin is not mentioned for the purified protein; also called human FeRn
In words: Biacore; human FcRn immobilised, 100 nM mAb bound at pH 6.0, read 5 s into dissociation at pH 7.3. On the procedure:
The neutral pH dissociation of mAbs from human FeRn was measured by SPR using a Biacore T-100 instrument. Briefly, purified FeRn protein was immobilized onto a Biacore CM5 biosensor chip and PBSP (50 mM NaPO4, 150 mM NaCl and 0.05% (v/v) Surfactant 20) pH 7.3 was used as running buffer. The mAbs were diluted with PBSP pH 6.0 to 100 nM, allowed to bind FcRn for 3 minutes to reach equilibrium and followed by 1 minute of dissociation in pH 7.3 running buffer. A report point (Stability) was inserted at 5 seconds after the end of mAb binding and the “% bound” was calculated as RUStability/RUBinding (%).
As to B1, the “% bound (RUStability/RUBinding)” value stood at 1%.
On the same count and under the same terms, for B2 the value was 5%.
Turning to B3, the “% bound (RUStability/RUBinding)” value is 1.1%.
Still for that read-out and setting: for B4 the value was 0.9%.
